From patent US20240218064A1 (AstraZeneca / MedImmune, published 2024) come the findings set out here.

One experiment concerns the target cynomolgus monkey LOX-1 (cynomolgus monkey, UniProt A0A2K5VQ73 79-291). As to the kind of experiment: BIAcore (SPR). In general terms: In SPR one partner is held on a chip, and binding of the other changes the refractive index at the surface.
Experiment [1] has as its target T1, human LOX-1 (lectin-like oxidized low density lipoprotein receptor-1) (human, UniProt P78380 61-273). As to the kind of experiment: BIAcore (SPR); Fab, not full mAb; LOX-1.
Experiment [2] has as its target T2, soluble LOX-1 (sLOX-1) in sera of participants with T2DM (human, UniProt P78380 89-273, limits assumed).
T2 construct: domain: cleaved soluble domain of LOX-1; Endogenous protein in patient serum; also called soluble lectin-like oxidized low-density lipoprotein receptor 1
As to the kind of experiment: sLOX-1 in sera of participants with T2DM; the paragraph names BIAcore, the method for this value is not made clear; full mAb; sLOX-1 in sera of participants with T2DM.

The target in experiment [3] is T1, human LOX-1 (lectin-like oxidized low …). The experiment is described as follows: in vitro inhibition of ligand binding to human LOX-1; competitor ligand oxLDL; ligand oxLDL. An excerpt:
(§1) FIG. 3. MEDI6570 inhibition of ligand binding. AGE-BSA=advanced glycation end products-bovine serum albumin; CRP=c-reactive protein; IgG-immunoglobulin G; OxLDL=oxidized low-density lipoprotein. Antibodies were titrated across a 384 well dilution plate in assay buffer (PBS/0.1% BSA/0.01% Tween 20) over 24 points in duplicate.
(§2) The ability of MEDI6570 to inhibit binding of the LOX-1 ligands oxLDL, AGE (advanced glycation end products, in this case glycated bovine serum albumin, BSA) and CRP was determined using in vitro assays. AGEs are known ligands of LOX-1. They commonly occur in patients that have poorly regulated levels of blood glucose, which is a risk factor for cardiovascular disease.

The target is the same in experiment [4]. As to the kind of experiment: in vitro inhibition of ligand binding to human LOX-1; competitor ligand AGE-BSA; ligand AGE-BSA.
Text: as §1, §2

Experiment [5] shares this target. As to the kind of experiment: in vitro inhibition of ligand binding to human LOX-1; competitor ligand CRP; ligand CRP.
Text: as §1, §2

B1: MEDI6570 Fab (Fab, V domains shown)
VH: QVQLVQSGAEVKKPGASVKVSCKVSGYTLTELSMHWVRQAPGKGLEWMGGFDPEDFKYHTHQKFQGRVTMTEDTSTDTAYMELSSLRSEDTAVYYCALVWGTQGKGVRGWDYYYGMDVWGQGTTVTVSS
VL: QSVVTQPPSVSGAPGQRVTISCTGSSSNIGAGYDVHWYQQLPGTAPKLLIYGNSNRPSGVPDRFSGSKSGTSASLAITGLQAEDEADYYCQSYDSSLSGWVFGGGTKLTVL
notes: also called Fab of the antibody MEDI6570
Turning to B1, the equilibrium dissociation constant (Kd) was 0.116 nM in the experiment with cynomolgus monkey LOX-1 and 0.056 nM in experiment [1].

B2: MEDI6570 (antibody, human IgG1, lambda, V domains shown)
VH: B1 VH
VL: QSVVTQPPSVSGAPGQRVTISCTGSSSNIGAGYDVHWYQQLPGTAPKLLIYGNSNRPSGVPDRFSGSKSGTSASLAITGLQAEDEADYYCQSYDSSLSGWVFGGGTKLTVLG
notes: Fully human IgG1-lambda; also called LX5140110-IgG1-TM
In experiment [2], B2 had an equilibrium dissociation constant (Kd) of roughly 0.173 nM. The IC50 in experiment [3] worked out at 0.34 nM; in experiment [4] it was 0.54 nM; in experiment [5], 4.8 nM.

As a reminder, the Kd is the concentration at which binding is half-saturated. Broadly, the IC50 is the midpoint of a concentration-inhibition curve.
